How the values were obtained:
[1] = biological target: HSP70 (human HSP70; the antigen of the binning, humanization and variant binding assays) (human) (UniProt P0DMV8); test: Octet epitope binning, sandwich format; cell row N15F2-5 / column C92F3-5; the sheet does not say whether rows or columns are the first antibody
[2] = biological target: HSP70 (human HSP70; the antigen of the binning, humanization and variant binding assays) (human) (UniProt P0DMV8); test: Octet epitope binning, sandwich format; cell row N15F2-5 / column m77A; the sheet does not say whether rows or columns are the first antibody
[3] = biological target: HSP70 (human HSP70; the antigen of the binning, humanization and variant binding assays) (human) (UniProt P0DMV8); test: Octet epitope binning, sandwich format; cell row N15F2-5 / column N15F2-5; the sheet does not say whether rows or columns are the first antibody
[4] = biological target: HSP70 (human HSP70; the antigen of the binning, humanization and variant binding assays) (human) (UniProt P0DMV8); test: Octet epitope binning, sandwich format; cell row C92F3-5 / column N15F2-5; the sheet does not say whether rows or columns are the first antibody
[5] = biological target: HSP70 (human HSP70; the antigen of the binning, humanization and variant binding assays) (human) (UniProt P0DMV8); test: Octet epitope binning, sandwich format (first antibody on the sensor, then HSP70, then second antibody); cell row C92F3-5 / column C92F3-5; the sheet does not say whether rows or columns are the first antibody
[6] = biological target: HSP70 (human HSP70; the antigen of the binning, humanization and variant binding assays) (human) (UniProt P0DMV8); test: Octet epitope binning, sandwich format; cell row C92F3-5 / column m77A; the sheet does not say whether rows or columns are the first antibody

Sequence of HSP70 (human HSP70; the antigen of the binning, humanization and variant binding assays) (human) (P0DMV8 whole entry, change not shown): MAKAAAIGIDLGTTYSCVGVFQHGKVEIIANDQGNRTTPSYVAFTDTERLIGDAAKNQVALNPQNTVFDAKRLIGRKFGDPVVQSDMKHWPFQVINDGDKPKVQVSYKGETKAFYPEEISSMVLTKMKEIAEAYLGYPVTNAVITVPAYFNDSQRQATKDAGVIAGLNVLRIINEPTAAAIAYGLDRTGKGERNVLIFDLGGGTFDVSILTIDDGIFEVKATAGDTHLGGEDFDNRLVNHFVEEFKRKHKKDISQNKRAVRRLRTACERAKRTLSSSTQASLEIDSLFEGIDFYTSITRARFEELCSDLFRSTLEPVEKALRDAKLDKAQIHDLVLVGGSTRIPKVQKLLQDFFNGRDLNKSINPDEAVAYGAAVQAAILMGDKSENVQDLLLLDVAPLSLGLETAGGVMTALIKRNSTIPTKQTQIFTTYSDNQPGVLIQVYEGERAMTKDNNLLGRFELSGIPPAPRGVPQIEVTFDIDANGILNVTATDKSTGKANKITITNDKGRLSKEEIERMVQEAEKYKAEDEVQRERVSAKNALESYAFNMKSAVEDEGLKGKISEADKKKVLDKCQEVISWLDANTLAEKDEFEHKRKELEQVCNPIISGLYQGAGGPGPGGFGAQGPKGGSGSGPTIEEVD

maximal binding in the presence of the potentially competing antibody (given as a fraction; legend: percent) [1]	maximal binding in the presence of the potentially competing antibody (given as a fraction; legend: percent) [2]	maximal binding in the presence of the potentially competing antibody (given as a fraction; legend: percent) [3]	maximal binding in the presence of the potentially competing antibody (given as a fraction; legend: percent) [4]	maximal binding in the presence of the potentially competing antibody (given as a fraction; legend: percent) [5]	maximal binding in the presence of the potentially competing antibody (given as a fraction; legend: percent) [6]	Substance
0.492	0.761	0				N15F2-5 (Enzo Life Sciences) anti-HSP70 antibody
			0.489	0	0.781	C92F3-5 (Fisher Scientific) anti-HSP70 antibody
